In general, Kd refers to the free concentration of one partner at which half of the binding sites on the other are occupied at equilibrium, for simple one-to-one binding. Low readings indicate a tighter complex, high ones a looser complex.

The results in this text go back to paper PMC4193741 (PLoS ONE, 2014).

The target in experiment [1] is T1, GST-fused N1 antigen (N1 epitope of H1N1 influenza virus) (Influenza A virus H1N1, neuraminidase …).
T1 construct: not shown: GST, N-terminal, kept
T1 chain: CRDNWHGSNRPW
The experiment in a line: SPR; Biacore 3000, CM5 chip; […], PBS running buffer; […]. The note with it: both partners purified. (In general: In SPR one partner is held on a chip, and binding of the other changes the refractive index at the surface.)

Experiment [2] deals with T2, GST-fused PreS2 antigen (PreS2 epitope of HBV) (Hepatitis B virus, PreS2 epitope …).
T2 construct: also called GST-PreS2; PreS2 of HBV; not shown: GST, N-terminal, kept
T2 chain: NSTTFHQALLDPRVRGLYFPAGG
The experiment is described as above. The note with it: both partners purified.

B1: S5 scFv (scFv, V domains shown)
VH: EVQLLESGGGLVQPGGSLRLSCAASGFTFSNYCIGWVRQAPGKGLEWVSPINSNNSNTEYADSVKGRFTISRDNSKNTLYLQMNSLRAEDTAVYYCARCSLPQISHFDYWGQGTLVTVSS
VL: EIVLTQSPGTLSLSPGERATLSCRASQNVSNYVSWYQQKPGQAPRLLIYDISTLQTGIPDRFSGSGSGTDFTLTISRLEPEDFAVYYCPKRVSTGGTFGQGTKVEIK
Regarding B1, the affinity in experiment [1], expressed as Kd, was 11 nM.

B2: SP1 scFv (scFv, V domains shown)
VH: EVQLLESGGGLVQPGGSLRLSCAASGFTFSDYAMYWVRQAPGKGLEWVSGIDINGSNTKYADSVKGRFTISRDNSKNTLYLQMNSLRAEDTAVYYCARKYNHNNHQNTTNFDYWGQGTLVTVSS
VL: EIVLTQSPGTLSLSPGERATLSCRASQNSSSYLSWYQQKPGQAPRLLIYYTSKLESGIPDRFSGSGSGTDFTLTISRLEPEDFAVYYCETVPSLLGVFGQGTKVEIK
notes: also called clone SP1; anti-PreS2 SP1 scFv
Molecule B2 returned a Kd in experiment [2] of 11.5 nM.
